Measurements published in publication PMC10148134.
pKd: −log10 of the molar value.

Columns and labels:
ovalbumin (OVA) = ovalbumin (OVA) (UniProt P01012); assay: BLI; 10 μg/mL proteins (OVA, Bm-SA) coupled on AR2G or SA sensors; various concentrations of βγ-CAT as analyte, PBS as buffer; association 300 s, dissociation 180 s; Octet R2; 1:1 model
[1] = target: toad B. maxima serum albumin (Bm-SA) (Bombina maxima) (UniProt Q3T478); assay: as above
Sequence of UniProt Q3T478 (Q3T478 23-607): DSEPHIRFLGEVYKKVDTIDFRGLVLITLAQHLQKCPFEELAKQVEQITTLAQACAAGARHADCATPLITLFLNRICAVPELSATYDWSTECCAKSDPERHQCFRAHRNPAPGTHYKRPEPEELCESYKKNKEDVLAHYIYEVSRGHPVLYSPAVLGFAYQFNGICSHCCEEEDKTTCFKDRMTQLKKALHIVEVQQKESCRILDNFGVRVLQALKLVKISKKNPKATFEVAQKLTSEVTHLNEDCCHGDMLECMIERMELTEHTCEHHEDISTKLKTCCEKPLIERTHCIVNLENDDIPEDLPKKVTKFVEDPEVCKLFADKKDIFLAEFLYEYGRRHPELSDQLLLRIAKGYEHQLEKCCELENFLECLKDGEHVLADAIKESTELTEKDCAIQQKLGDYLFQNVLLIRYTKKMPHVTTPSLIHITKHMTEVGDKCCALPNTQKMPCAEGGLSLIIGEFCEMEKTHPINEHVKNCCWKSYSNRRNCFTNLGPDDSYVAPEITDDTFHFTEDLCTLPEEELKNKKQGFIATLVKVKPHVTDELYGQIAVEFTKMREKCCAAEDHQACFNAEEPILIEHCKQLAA

Sequence of UniProt P01012 (P01012 whole entry): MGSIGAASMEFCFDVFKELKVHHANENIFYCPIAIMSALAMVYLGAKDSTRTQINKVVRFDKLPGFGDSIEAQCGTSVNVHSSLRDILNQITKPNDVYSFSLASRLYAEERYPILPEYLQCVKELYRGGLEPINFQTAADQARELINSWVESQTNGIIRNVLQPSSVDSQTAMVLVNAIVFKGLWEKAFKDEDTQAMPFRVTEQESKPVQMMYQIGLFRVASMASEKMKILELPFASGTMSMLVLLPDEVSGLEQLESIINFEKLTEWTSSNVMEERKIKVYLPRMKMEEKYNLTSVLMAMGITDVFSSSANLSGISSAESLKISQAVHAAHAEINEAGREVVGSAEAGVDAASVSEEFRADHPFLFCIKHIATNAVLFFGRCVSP

## βγ-CAT, pore-forming protein (PFP) and trefoil factor complex of BmALP1 and BmTFF3 from toad Bombina maxima
Ovalbumin (OVA)
  pKd: 7.63
[1]
  pKd: 7.61
